In IntAct's records for PubMed 20543817:

Assays:
[1] = biological target: nlgnx_human NLGN4X (UniProt Q8N0W4)
[2] = biological target: Nlgn1, Q62765-2
[3] = biological target: nlgnx_human NLGN4X (UniProt Q8N0W4); remark: listed apart in the source
[4] = biological target: Nlgn1, Q62765-2; remark: listed apart in the source
[5] = biological target: nlgnx_human NLGN4X (UniProt Q8N0W4); remark: listed apart in the source
[6] = biological target: Nlgn1, Q62765-2; remark: listed apart in the source
[7] = biological target: Nlgn1, Q62765-2; remark: listed apart in the source
[8] = biological target: nlgnx_human NLGN4X (UniProt Q8N0W4); remark: listed apart in the source

Nlgn1, Q62765-2, sequence (Q62765 other isoform, or with tags, fused parts or gaps): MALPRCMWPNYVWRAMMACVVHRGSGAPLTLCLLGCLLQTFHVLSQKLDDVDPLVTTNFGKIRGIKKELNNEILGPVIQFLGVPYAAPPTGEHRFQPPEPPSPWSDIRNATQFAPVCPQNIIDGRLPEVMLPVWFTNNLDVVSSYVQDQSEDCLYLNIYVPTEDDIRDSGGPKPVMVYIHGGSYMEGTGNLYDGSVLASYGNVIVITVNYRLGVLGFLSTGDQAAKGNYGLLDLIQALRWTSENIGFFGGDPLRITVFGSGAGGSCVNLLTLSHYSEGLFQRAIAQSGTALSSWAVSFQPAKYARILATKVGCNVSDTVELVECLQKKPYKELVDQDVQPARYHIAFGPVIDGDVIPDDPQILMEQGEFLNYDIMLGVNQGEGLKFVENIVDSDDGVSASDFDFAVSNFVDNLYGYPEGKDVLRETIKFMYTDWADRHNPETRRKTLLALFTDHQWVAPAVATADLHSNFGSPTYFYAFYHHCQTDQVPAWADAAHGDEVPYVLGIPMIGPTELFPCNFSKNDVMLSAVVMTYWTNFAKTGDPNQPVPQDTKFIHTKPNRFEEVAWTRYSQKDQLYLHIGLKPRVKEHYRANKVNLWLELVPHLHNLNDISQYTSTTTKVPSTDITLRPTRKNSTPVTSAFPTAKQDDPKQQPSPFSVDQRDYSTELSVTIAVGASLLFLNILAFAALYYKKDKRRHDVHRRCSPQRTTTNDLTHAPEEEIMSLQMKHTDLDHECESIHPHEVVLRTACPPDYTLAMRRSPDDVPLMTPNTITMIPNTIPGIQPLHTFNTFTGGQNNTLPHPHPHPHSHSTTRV
Neurexin-1-beta (Rattus norvegicus (Rat)), Q63373-3 R202A, sequence (Q63373 other isoform, or with tags, fused parts or gaps R202A): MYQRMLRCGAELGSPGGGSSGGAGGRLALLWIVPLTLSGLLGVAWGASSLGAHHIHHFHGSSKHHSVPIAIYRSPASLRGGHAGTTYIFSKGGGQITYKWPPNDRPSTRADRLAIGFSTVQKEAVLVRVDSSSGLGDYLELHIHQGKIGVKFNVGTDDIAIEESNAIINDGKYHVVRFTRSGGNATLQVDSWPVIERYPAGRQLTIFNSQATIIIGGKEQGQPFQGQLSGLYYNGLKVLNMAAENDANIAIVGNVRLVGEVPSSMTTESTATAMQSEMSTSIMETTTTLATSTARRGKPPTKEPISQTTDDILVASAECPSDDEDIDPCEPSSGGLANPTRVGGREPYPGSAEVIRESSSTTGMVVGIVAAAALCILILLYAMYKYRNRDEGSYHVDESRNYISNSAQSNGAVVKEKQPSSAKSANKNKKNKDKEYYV
Neurexin-1-beta (Rattus norvegicus (Rat)), Q63373-3 R109A, sequence (Q63373 other isoform, or with tags, fused parts or gaps R109A): as the sequence (Q63373 other isoform, or with tags, fused parts or gaps R202A) above
Neurexin-1-beta (Rattus norvegicus (Rat)), Q63373-3 N103A, sequence (Q63373 other isoform, or with tags, fused parts or gaps N103A): as the sequence (Q63373 other isoform, or with tags, fused parts or gaps R202A) above
Neurexin-1-beta (Rattus norvegicus (Rat)), Q63373-3 I206A, sequence (Q63373 other isoform, or with tags, fused parts or gaps I206A): as the sequence (Q63373 other isoform, or with tags, fused parts or gaps R202A) above

Neurexin-1-beta (Rattus norvegicus (Rat)), Q63373-3 I206A
effect of a mutation on the interaction [1]: disrupting interaction
effect of a mutation on the interaction [2]: disrupting interaction

Neurexin-1-beta (Rattus norvegicus (Rat)), Q63373-3 N103A
effect of a mutation on the interaction [3]: decreasing interaction
effect of a mutation on the interaction [4]: decreasing interaction

Neurexin-1-beta (Rattus norvegicus (Rat)), Q63373-3 R109A
effect of a mutation on the interaction [5]: disrupting interaction
effect of a mutation on the interaction [6]: decreasing interaction

Neurexin-1-beta (Rattus norvegicus (Rat)), Q63373-3 R202A
effect of a mutation on the interaction [7]: decreasing interaction
effect of a mutation on the interaction [8]: disrupting interaction
